Data from paper PMC5322768 (Developmental dynamics : an official publication of the …, 2016).

B1: Par6B (natural protein, canine (endogenous in MDCK), UniProt A0A8I3PSX6 1-370, looked up)
chain: MNRSHRHGAGSGCLGTMEVKSKFGAEFRRFSLERSKPGKFEEFYGLLQHVHKIPNVDVLVGYADIHGDLLPINNDDNYHKAVSTANPLLRIFIQKKEEADYSAFGTDTLIKKKNVLTNVLRPDNHRKKPHIVISMPQDFRPVSSIIDVDILPETHRRVRLYKYGTEKPLGFYIRDGSSVRVTPHGLEKVPGIFISRLVPGGLAQSTGLLAVNDEVLEVNGIEVSGKSLDQVTDMMIANSRNLIITVRPANQRNNVVRNSRTSGSSGQSTDNSLLGYPQQVEPSFEPEDEDSDEDDIIIEDNGVPQQIPKAVPNTESFESLTQIELSFESGQNGFIPSNEVSLAPIASGTNTETRAPDQKLLEEDGTIITL
B2: aPKCλ–myc (myc-tagged aPKCλ) (enzyme, murine, UniProt Q62074 1-595, looked up)
chain: MPTQRDSSTMSHTVACGGGGDHSHQVRVKAYYRGDIMITHFEPSISFEGLCSEVRDMCSFDNEQPFTMKWIDEEGDPCTVSSQLELEEAFRLYELNKDSELLIHVFPCVPERPGMPCPGEDKSIYRRGARRWRKLYCANGHTFQAKRFNRRAHCAICTDRIWGLGRQGYKCINCKLLVHKKCHKLVTIECGRHSLPPEPMMPMDQTMHPDHTQTVIPYNPSSHESLDQVGEEKEAMNTRESGKASSSLGLQDFDLLRVIGRGSYAKVLLVRLKKTDRIYAMKVVKKELVNDDEDIDWVQTEKHVFEQASNHPFLVGLHSCFQTESRLFFVIEYVNGGDLMFHMQRQRKLPEEHARFYSAEISLALNYLHERGIIYRDLKLDNVLLDSEGHIKLTDYGMCKEGLRPGDTTSTFCGTPNYIAPEILRGEDYGFSVDWWALGVLMFEMMAGRSPFDIVGSSDNPDQNTEDYLFQVILEKQIRIPRSLSVKAASVLKSFLNKDPKERLGCHPQTGFADIQGHPFFRNVDWDMMEQKQVVPPFKPNISGEFGLDNFDSQFTNEPVQLTPDDDDIVRKIDQSEFEGFEYINPLLMSAEECV
B3: β-catenin (natural protein, canine (endogenous in MDCK), UniProt B6V8E6 1-781, looked up)
chain: MATQADLMELDMAMEPDRKAAVSHWQQQSYLDSGIHSGATTTAPSLSGKGNPEEEDVDTTQVLYEWEQGFSQSFTQEQVADIDGQYAMTRAQRVRAAMFPETLDEGMQIPSTQFDAAHPTNVQRLAEPSQMLKHAVVNLINYQDDAELATRAIPELTKLLNDEDQVVVNKAAVMVHQLSKKEASRHAIMRSPQMVSAIVRTMQNTNDVETARCTAGTLHNLSHHREGLLAIFKSGGIPALVKMLGSPVDSVLFYAITTLHNLLLHQEGAKMAVRLAGGLQKMVALLNKTNVKFLAITTDCLQILAYGNQESKLIILASGGPQALVNIMRTYTYEKLLWTTSRVLKVLSVCSSNKPAIVEAGGMQALGLHLTDPSQRLVQNCLWTLRNLSDAATKQEGMEGLLGTLVQLLGSDDINVVTCAAGILSNLTCNNYKNKMMVCQVGGIEALVRTVLRAGDREDITEPAICALRHLTSRHQEAEMAQNAVRLHYGLPVVVKLLHPPSHWPLIKATVGLIRNLALCPANHAPLREQGAIPRLVQLLVRAHQDTQRRTSMGGTQQQFVEGVRMEEIVEGCTGALHILARDVHNRIVIRGLNTIPLFVQLLYSPIENIQRVAAGVLCELAQDKEAAEAIEAEGATAPLTELLHSRNEGVATYAAAVLFRMSEDKPQDYKKRLSVELTSSLFRTEPMAWNETADLGLDIGAQGEPLGYRQDDPSYRSFHSGGYGQDALGMDPMMEHEMGGHHPGADYPVDGLPDLGHAQDLMDGLPPGDSNQLAWFDTDL

Tests used:
[1] = biological target: TMEM47-GFP (murine TMEM47 tagged with GFP) (murine) (UniProt Q9JJG6); experiment: co-IP
Sequence of TMEM47-GFP (murine TMEM47 tagged with GFP) (murine) (Q9JJG6 whole entry): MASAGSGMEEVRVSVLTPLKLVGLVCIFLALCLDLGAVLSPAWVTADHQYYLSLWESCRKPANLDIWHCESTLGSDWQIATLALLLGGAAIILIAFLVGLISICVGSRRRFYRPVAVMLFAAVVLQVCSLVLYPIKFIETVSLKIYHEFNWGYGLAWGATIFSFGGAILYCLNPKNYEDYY

[2] = biological target: TMEM47-GFP (murine TMEM47 tagged with GFP) (murine, UniProt Q9JJG6 1-181); experiment: co-IP
Sequence of TMEM47-GFP (murine TMEM47 tagged with GFP) (Q9JJG6 whole entry): as above

Row | Molecule | precipitating fraction [1] [%] | precipitating fraction [2] [%]
1 | α-catenin (natural protein) | < 5 | –
2 | B1 | – | < 5
3 | B2 | – | < 5
4 | B3 | – | < 5
